Reference: the DeepSol protein solubility set

Assay: soluble on expression in E. coli; label from the status in PepcDB or PDB records

Sequence	soluble on expression in E. coli
MSLTEFLERNAALYGSEKCLTEINLDLQESHNVIWREYELIENNPAGEYRRDMTWKVFDEKANRFANLLIKRGIKKGDKVAILLMNCLEWLPIYFGILKAGAVAVPLNFRYTAEEIKYCLELSDSIALVFGPEFIGRIENIYDQIIPKIKLLLFAGENRPSFAESYDRLTANCPSEAPKVEITDDDDAAIYFSSGTTGFPKAILHAHRSLVSACYTEQKHHGQTREDNFLCIPPLYHTGAKMHWFGSLLSGSKAVLLRGIKPEWILRTVSEEKITIVWLLVPWAQDILDAIERGDVKLEDYDLSQWRLMHIGAQPVPPSLIRRWKKYFPHHLYDTNYGLSESAGPGCVHLGVENIHKVGAIGLPGYNWEAKIVDENGCPVKQGEVGELAVKGPGVMKCYYKDPEATAAVLKDGWLLTGDMARMDEDGFIYLVDRKKDVIISGGENIYPVQIEDFLRSHEAIKDAAVIGLPDKRLGEIAAAIIELKPGFECTEEEINKFCLVLPRYKRPRKIIFDKVPRNPTGKIEKPRLREKYGVVALVEAETEGHHHHHH	soluble
MGSSHHHHHHSSGRENLYFQGMVSVTFEPVGKKVEDEPDTILEIARRNGVLIRSDCGGKGVCGKCKVVVVDYRGSLSDITDHERKHLIEEEISKGYRLACQARVEEGRATIFIPPESRLERRKVAGLTIEKEVELNPAVRKVYAEIQPPSIEDQLPDYDRLTRALGDFSLDLETLSEMPKLLREAEWRVTATFWNGRLIDLEKGDVSDRCYGVAVDVGSSKIICHLVDLKSGETIATGYSDNPQVAYGEDIVSRITYASKSAENRKRLQTVVVETVNQIIAELCNESGVDLRHVYEVMIVGNSVMHHLFFGIEPRFIGVSPFTPAVRRGVSFPAEDVGLRINRKGYVSSLPLVAGFVGADAVANIAITGIHKAEEISMVIDIGTNTEIVIGNREKLGVCSAPSGPAFEGAHITFGMKAISGAIDSVRIERDEVIYTTIDNAKAKGLCGTGLIDLIAELYRNGIINRNGKFVKDHSRIIVDGVPKFVVAKAEETEFGKPITVSEKDINELLMAKGAIKSGWMILSERLGIEPDKIERIYLAGSFGRHINVENAKVIGLLPDIPSEKITFAGDTAVGGAKMALKSVRVRDEMEDVVSRLNYVELSVEKNFYSVFVRAIPI	soluble
QDIAADIAPERVSNDPLVNLGEAVVEEEEKVGALEDLFMETKQDGVNTDDPIAHLKFSMQREDDYLIRDVEKPEPAPAKTIENTRQVVDDSFSIHSEFDIPNLIPEDWLGGVATSKESVEPAAEQAKQAAFIPEDFAHTKPVSPQASVVQPDVNQPQQPQYEAPLSHATSNVTQRAEPVSQKWEEVTQAFVPSAQPTQPETKAKEAQQGFVSNESLAIESVAHSSDIGKAFYEGLGISNPDLISNEALLFKQMGACLRLCIDNLQKDLHEVESLKGEQGLSEADSNLAELMLTLNSQNLLSPNELVEQMLDELNDHQIIFNKALNELLIEQSETNDPVMFANDVASKSMFTTKSKLWGEYLEFYANNRRQMNETSLKGLIKKNYTKAIKGSHA	not soluble
MKIIITGEPGVGKTTLVKKIVERLGKRAIGFWTEEVRDPETKKRTGFRIITTEGKKKIFSSKFFTSKKLVGSYGVNVQYFEELAIPILERAYREAKKDRRKVIIIDEIGKMELFSKKFRDLVRQIMHDPNVNVVATIPIRDVHPLVKEIRRLPGAVLIELTPENRDVILEDILSLLER	soluble
MATVQVDIVTPERKVFQGEADIVIARGVEGELGVMAGHIPLVTPLKTAPVRIKQGDKETLIAVSGGFLEVRPDKVNILADTAELPEEIDVERAKKAKARHETILKRLDKTDKDYLRHKRALERAEVRLQVANSKS	soluble
MRLATKDLAEAIRKGQVRKSSFNTEQLRAIEKGESKIPDYTWHHHQDTGRMQLIREGLHHDTGHIGWEAMNKGR	not soluble
MFILKDVTYKDILHIPYLQIQKEKITCIIGESGSGKSTLLRMLNDLQSPTSGIIEYNGKLISDYPPIQLRRDVVMLGQTPPIFDGTIKDNLLMGLRLSEKPFPNDDILRSALKTISLEKNLEDNADSLSGGEKQRLAFARIVLMDPPVYLLDEPTSALDSDTERRVMKQFTTLAREKKKTVIFITHSQQLPEEIADDIIEISKANGATRKEVLSVEGRY	not soluble
AELPPEFAAQLRKIGDKVYCTWSAPDM	soluble
MSLVEDGKATLGLRNFYINRNFTNPSNPQSKAEEWTQSFILDARSGFTEGPIGFGVDVLGLWSVKLDGGGGTYGTALLPRHDDGRPADDYGRLAVAGKARISKTELKIGEWMPVLPILRSDDGRSLPQTFRGGQVTSNEIAGLTLYGGQFRGNSPRNDASMEDMSYGGGVSDRFNFVGGEYKFNQDRTQVGLWNAVLKDVYQQQYLQLSHSQPVGDWTLGANLGYFHGDEDGSERAGQLDNKTYSGMFSAKYGGSTFWVGLQKVDGDTWMRVNGTSGGTLANDSYNSSFDNANERSWQVRHDFNFVTVGVPGLTLMNRYISGRDVHSGGVTDGKEWVRETELAYVIQSGAFKDLSVKWRNSSIRRDYSNNEFDENRLIFNYPLSLLEGHHHHHH	soluble
MALDQSLVGRSYPPTAPYEVGREKIREFAEAVGDANPAYTDAEAAKALGHPDVIAPPTFVFSITFKAAGQVIEDPQLGLDYSRVVHGDQKFSYARPVRAGDRLTVTSTIEAIKSMAGNDILDIRGEVHDEAGEHVVTAWTKLVARAAEEALEHHHHHH	soluble
MSLSELIFYTNPMSRGRIARWMLEEVGIPYKTEILGFETSMKSPAYRLINPMAKVPAIKHGDTIVTEAAAICAYLADAFPGANLAPTPKARGLYYRWMFFAAGPLEMAASMKAMGFEVPKEKLRMAGCGSYADVMNTLERAVSENRFIAGDLFTAADVYVGAHVGWGLHFGTIEKRPAFTDYMAHLTDRPAFKRAAQLDEEAAKELQAAGEGHHHHHH	soluble
MNTGFANPSAKPDDPTDPRARRDHGGGLDGAMRRYGGQRADWIDLSTGINPLPYPVGTLLPEDWTALPDHGAFGELIRAARAFWHLPEAAAVLPAPGASALIARIPALADPARVRITQPTYNEHAAAFTAHGWQVVADGPAEARVIVHPNNPDGRIWSEAEAEGALCVIDESFGDVAPETSLAHLAARPGTVVLKSFGKFWGLAGLRLGFAVALPETIARLNDLTGPWAVSGPALRIGTRALSDTAWAEETRIRLAQEAARLDTLMSAGGVQVLGGTDLFRLYQVDDAAAWQDRLARARIWSRIFPYSDRFLRLGLPPAEGWDRLESAL	not soluble
MLKINVKYQLKNTLIRINIDDTEPKIYAVRGPSGIGKTTVLNMIAGLRKADEAIIEVNGQLLTDTAKNVNVKIQQRRIGYLFQDYQLFPNMTVYKNITFMAEPSEHIDQLIQTLNIDHLMKQYPMTLSGGEAQRVALARALSTKPDLILLDEPFSSLDDTTKDESITLVKRIFNEWQIPIIFVTHSNYEAEQMAHEIITIG	not soluble
MSLNGTSGSVARQLAARRIIGTSWRLFVAYLKWSGVLEVSFKGVEKLNRPGQLILANHPSLLDVVLLVGHVPEMNCIVKKDLQHNPAMSSQIKGAGYIPNEESEAMLETVKAVFDSGQSLLVFPEGTRTGWDGRVKMHRGAVSLGLRYAEVITPVCIKMNPPNFKKGQPWYRIPPKRIRYEITVGDDILPQDWLAEKPLPIAARRLNEYLQDYFTRKTIEGHHHHHH	not soluble
GAMGSYDWLPRLSKENFNAAPVTCFPHAPGCEVWDNLGVGMKVEVENTDCDSIEVIQPGQTPTSFWVATILEIKGYKALMSYEGFDTDSHDFWVNLCNAEVHSVGWCATRGKPLIPPRTIEHKYKDWKDFLVGRLSGARTLPSNFYNKINDSLQSRFRLGLNLECVDKDRISQVRLATVTKIVGDRLFLRYFDSDDGFWCHEDSPIIHPVGWATTVGHNLAAPQDYLERMLAGREAMIEVHEDDATIELFKMNFTFDEYYSDGKTNSFVEGMKLEAVDPLNLSSICPATVMAVLKFGYMMIRIDSYQPDASGSDWFCYHEKSPCIFPAGFCSVNNISVTPPNGYDSRTFTWEGYLSDTGAVAAGQHLFHDIIPDHGFEVGMSLECADLMDPRLVCVATVARVVGRLLKVHFDGWTDEYDQWLDCESADIYPVGWCVLVNHKLEGPPR	soluble
MNILYDERLDGPLPQVDKDGLLAELRLRLPDLELLHAAEDLRPYECDGLSAYRCTPLLVALPERIEQVQGLLALCHRLKVPVVARGAGTGLSGGALPLENGVLLVMARFRRILEIDPLGRFARVQPGVRNLAISQAAAPHGLYYAPDPSSQIACSIGGNVAENAGGVHCLKYGLTVHNLLQVDIVTLEGERLSLGSSALDSAGFDLLALFTGSEGLLGVVVEVTVRLLPRPPVAKVLLASFDDVESAGRAVADLIGAGIVPAGLEMMDNLSIRAAEDFIHAGYPVDAAAILLCELDGVEADVHEDCERVRELFEAAGATSVRQAQDEAERQRFWAGRKNAFPAVGRISPDYYCMDGSIPRRELPRVLHGIAELSREYGLRVANVFHAGDGNMHPLILFDANLAGELERAEALGGRILELCVAVGGSITGEHGVGREKINQMCAQFNADELTLFHAVKAAFDPAGLLNPGKNVPTLHRCAEFGAMHVHHGRLPFPELERF	not soluble
RSARPPGPRVSRARCLPGLIAEQLLQQAARGQDRQQQLQRDPQKALCDLHPSWKEIQALQCRPGHPPEQPWETSQMPESQVKGSRRPKFHARPEDYAVSQPNRDIQEKREASLEESPVALGESASVPQVSETVPASQPLSKKTSSQSNSSSEGSMWATVPSSPTLDRDTASEVDDLEPDSVSLALEMGGSAAPAAPKLKIFMAQYNYNPFEGPNDHPEGELPLTAGDYIYIFGDMDEDGFYEGELDDGRRGLVPSNFVEQIPDSYIPGCLPAKSPDLGPSQLPAGQDEALEEDSLLSGKAQGVVDRGLCQMVRVGSKTEVATEILDTKTEACQLGLLQSMGKQGLSRPLLGTKGVLRMAPMQLHLQNVTATSANITWVYSSHRHPHVVYLDDREHALTPAGVSCYTFQGLCPGTHYRARVEVRLPRDLLQVYWGTMSSTVTFDTLLAGPPYPPLDVLVERHASPGVLVVSWLPVTIDSAGSSNGVQVTGYAVYADGLKVCEVADATAGSTLLEFSQLQVPLTWQKVSVRTMSLCGESLDSVPAQIPEDFFMCHRWPETPPFSYTCGDPSTYRVTFPVCPQKLSLAPPSAKASPHNPGSCGEPQAKFLEAFFEEPPRRQSPVSNLGSEGECPSSGAGSQAQELAEAWEGCRKDLLFQKSPQNHRPPSVSDQPGEKENCSQHMGTSKSPAPGFIHLRTECGPRKEPCQEKAALERVLRQKQDAQGFTPPQLGASQQYASDFHNVLKEEQEALCLDLWGTERREERREPEPHSRQGQALGVKRGCQLHEPSSALCPAPSAKVIKMPRGGPQQLGTGANTPARVFVALSDYNPLVMSANLKAAEEELVFQKKQLLRVWGSQDTHDFYLSECNRQVGNIPGCLVAEMEVGTEQTDRRWRSPAQGHLPSVAHLEDFQGLTIPQGSSLVLQGNSKRLPLWTPKIMIAALDYDPGDGQMGGQGKGRLALRAGDVVMVYGPMDDQGFYYGELGGHRGLVPAHLLDHMSLHGH	soluble
MGSDKIHHHHHHMKRSKYQLGRIGRLTIDRIVSIGAYLDGGDTDILLPNRYLPSDAAPGMEVEVFVYHDNEGRLIATTMRPLVEVGQVALLHAVSVTDSGAYMEWGIHKDLFVPFREQTQLIREGGRYFVYAYIDHVSGKIVGSAKLSKHLGNIPPSYSPGDKVSALVYERIDPGYRMIVDHTHWGMIYSDTLPMPLAIGAQVKAFVIRLRDDGKIDLSLKPIGYDRIDSESERLLHMLQRRGGRLPIGDKSSPEEIMQHTGMSKKTFKMAVGMLYRRRLIRITPTAITLNETVSTPEA	not soluble
